Measurements published in US6964763 (CORNELL RESEARCH FOUNDATION, dated 2005).

B1: Purified human calcium-replete thrombospondin-1 (TSP1) from thrombin-activated platelets (ligand)
chain: not shown
notes: mature; also called purified platelet TSP1
B2: RANTES (regulated on activation normal T expressed and secreted protein) (ligand, UniProt P13501 24-91, looked up)
chain: SPYSSDTTPCCFAYIARPLPRAHIKEYFYTSGKCSNPAVVFVTRKNRQVCANPEKKWVREYINSLEMS

Experiments:
[1] = molecular target: T1, CHO cell-expressed soluble recombinant CD4 (UniProt P01730 26-394); experiment: solid phase binding, 125I-CD4 on immobilized TSP1
T1 construct: also called soluble CD4
Experimental: (§1) Washed wells were blocked with 0.5% bovine serum albumin ("BSA"), then incubated in triplicate with soluble radiolabeled ligand for 2.5 hours at 37° C. After extensive washing in 50 mM Tris pH 7.5, 150 mM NaCl, 0.5% Tween-20 (TBS-Tween), bound radioactivity was quantified by gamma counter. […] Specific binding was determined as quenchable in the presence of excess unlabeled ligand, above background binding to BSA-coated wells.

[2] = molecular target: B1; experiment: solid phase binding, 125I-RANTES on immobilized TSP1; saturatable, biphasic
Experimental: as §1

| Binder | binding result [1] | EC50 [2] |
| --- | --- | --- |
| B1 | binds |  |
| B2 |  | ~330 nM |
